Reference: article PMC5679713 (Structure (London, England : 1993), 2017)
Each block holds one molecule with its values, some of them ahead of it. Where no end group is shown, it is not given here. Me3 = trimethyl-lysine

Experiments:
[1] = molecular target: PPS-PHD (Drosophila melanogaster, UniProt Q9VG78); assay: 1H,15N HSQC NMR titration, PPS-PHD; assay type: binding; details: pH 6.9, H3 peptide residues 1-12, 298K
[2] = molecular target: PHD finger of Drosophila PPS (PPS-PHD), wild type, as used in NMR and fluorescence (Drosophila); assay: NMR titration
[3] = molecular target: PHD finger of Drosophila PPS (PPS-PHD), wild type, as used in NMR and fluorescence (Drosophila); assay: other fluorescence titration
[4] = molecular target: PHD finger of Drosophila PPS (PPS-PHD), wild type, as used in NMR and fluorescence (Drosophila); assay: other fluorescence titration; remark: listed apart in the source
[5] = molecular target: PHD finger of Drosophila PPS (PPS-PHD), wild type, as used in NMR and fluorescence (Drosophila); assay: other fluorescence titration; remark: listed apart in the source
[6] = molecular target: T1, PHD finger of yeast Bye1 (Bye1-PHD), aa 47-134 (S. cerevisiae, UniProt P36106 47-134); assay: other fluorescence titration
T1 sequence (looked up): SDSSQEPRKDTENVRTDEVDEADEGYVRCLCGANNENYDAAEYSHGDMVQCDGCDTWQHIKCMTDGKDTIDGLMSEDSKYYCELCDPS

Sequence of PPS-PHD (Q9VG78 1-2016): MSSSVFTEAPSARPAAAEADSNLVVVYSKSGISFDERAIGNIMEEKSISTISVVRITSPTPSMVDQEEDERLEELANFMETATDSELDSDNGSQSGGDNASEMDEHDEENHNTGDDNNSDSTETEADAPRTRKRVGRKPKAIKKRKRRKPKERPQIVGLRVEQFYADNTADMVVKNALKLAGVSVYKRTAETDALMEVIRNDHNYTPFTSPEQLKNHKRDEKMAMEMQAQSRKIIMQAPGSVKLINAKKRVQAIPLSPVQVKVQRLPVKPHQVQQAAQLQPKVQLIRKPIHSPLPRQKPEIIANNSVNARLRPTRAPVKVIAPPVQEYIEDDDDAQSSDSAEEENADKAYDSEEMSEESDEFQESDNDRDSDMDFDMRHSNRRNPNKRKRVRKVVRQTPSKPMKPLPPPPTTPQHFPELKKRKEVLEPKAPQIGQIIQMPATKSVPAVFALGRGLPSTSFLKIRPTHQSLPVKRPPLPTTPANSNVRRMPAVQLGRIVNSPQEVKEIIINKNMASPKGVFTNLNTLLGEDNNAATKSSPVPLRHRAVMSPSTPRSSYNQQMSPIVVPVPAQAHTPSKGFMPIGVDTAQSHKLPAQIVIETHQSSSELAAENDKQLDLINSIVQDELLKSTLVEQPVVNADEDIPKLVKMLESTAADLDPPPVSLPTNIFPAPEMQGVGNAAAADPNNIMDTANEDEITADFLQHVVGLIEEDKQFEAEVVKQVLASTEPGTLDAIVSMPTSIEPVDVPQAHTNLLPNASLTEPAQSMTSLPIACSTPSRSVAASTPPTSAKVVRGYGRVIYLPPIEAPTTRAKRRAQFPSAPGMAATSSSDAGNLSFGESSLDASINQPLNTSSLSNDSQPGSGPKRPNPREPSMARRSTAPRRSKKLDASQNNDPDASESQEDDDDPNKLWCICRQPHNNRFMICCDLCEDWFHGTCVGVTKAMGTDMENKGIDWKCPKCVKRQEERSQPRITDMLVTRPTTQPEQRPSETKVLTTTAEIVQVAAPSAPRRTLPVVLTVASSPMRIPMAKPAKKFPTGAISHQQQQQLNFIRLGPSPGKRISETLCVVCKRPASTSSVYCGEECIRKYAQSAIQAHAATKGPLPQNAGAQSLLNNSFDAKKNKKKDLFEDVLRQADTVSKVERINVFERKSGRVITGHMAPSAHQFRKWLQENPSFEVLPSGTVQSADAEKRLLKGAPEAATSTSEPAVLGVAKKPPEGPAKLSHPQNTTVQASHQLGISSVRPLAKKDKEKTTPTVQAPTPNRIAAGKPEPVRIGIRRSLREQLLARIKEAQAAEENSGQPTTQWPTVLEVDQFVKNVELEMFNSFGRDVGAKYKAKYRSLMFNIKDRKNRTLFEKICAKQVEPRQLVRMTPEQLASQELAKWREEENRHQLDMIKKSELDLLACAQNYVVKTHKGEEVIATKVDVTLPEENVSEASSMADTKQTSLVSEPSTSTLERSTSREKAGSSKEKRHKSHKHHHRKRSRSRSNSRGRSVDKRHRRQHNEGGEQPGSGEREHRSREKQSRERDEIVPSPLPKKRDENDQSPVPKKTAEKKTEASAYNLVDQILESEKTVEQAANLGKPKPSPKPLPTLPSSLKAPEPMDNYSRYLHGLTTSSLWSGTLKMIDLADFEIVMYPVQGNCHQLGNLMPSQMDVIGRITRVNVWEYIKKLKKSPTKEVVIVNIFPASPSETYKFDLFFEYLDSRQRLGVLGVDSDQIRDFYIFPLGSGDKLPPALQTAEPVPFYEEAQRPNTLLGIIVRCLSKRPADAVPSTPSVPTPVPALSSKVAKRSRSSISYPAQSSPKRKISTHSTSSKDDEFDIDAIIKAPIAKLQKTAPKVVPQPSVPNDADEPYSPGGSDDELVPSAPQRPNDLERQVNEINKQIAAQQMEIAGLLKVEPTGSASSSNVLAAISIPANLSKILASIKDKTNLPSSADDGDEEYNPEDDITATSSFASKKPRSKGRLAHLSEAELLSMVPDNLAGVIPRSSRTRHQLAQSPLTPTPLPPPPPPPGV

Binding by NMR chemical shift perturbations (CSPs), in words [1]: no CSPs in PPS-PHD were seen
Molecule: H3K4me0: H3K4me0 peptide (1–12 aa), unmethylated histone H3 tail, Synpeptide
Recognition of unmethylated histone H3 tail, in words ([1]; NMR): does not recognize unmethylated histone H3 tail at all

Kd [2]: 230 µM
Molecule: histone H3K4me1 peptide (residues 1-12 of H3) (from UniProt P68431 2-13)

Kd [3]: 17 µM
Kd [4]: 3.6 µM
Kd [5]: 1.9 µM
Molecule: histone H3K4me3 peptide (residues 1-12 of H3) (from UniProt P68431 2-13)

binding result [6]: binds
B1: histone H3K4me3 peptide (residues 1-12 of H3) (peptide, UniProt P68431 2-13, looked up)
peptide: ARTK(Me3)QTARKSTG
